These results are taken from the supplement of paper PMC10567573.

A short description of this data set: protein stability index of a GFP-peptide fusion (GPS, HEK-293T) (PSI 1-6); higher = more stable. The settings on record: c terminus: a fixed tail appended.

± gives the standard deviation.
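Note: 24-mer peptide tiles fused after GFP, lentivirally expressed, FACS-sorted into six equal bins by GFP/DsRed ratio, decoded by Illumina sequencing, PSI is the read-weighted mean bin number.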

With LRARNYEYLIRLFQEWEAHRNLSQ [TCF25], the protein stability index came out at 2.13 ± 0.38 (treatment: DMSO) and 2.18 ± 0.35 (treatment: MLN4924 1 uM, 8 h).
On to LRGKFKRPPLRRVRMSADAMLKAL [TNNI2], for which the protein stability index (treatment: DMSO) was 2.25 ± 0.46 and the protein stability index (treatment: MLN4924 1 uM, 8 h) stood at 2.4 ± 0.14.
With LRRGHPAGGEENMTETDAFYKREM [CASP6], the protein stability index reads like this: (treatment: DMSO) 4.9 ± 0.2; (treatment: MLN4924 1 uM, 8 h) 4.43 ± 0.84.
For the sequence LRRRIENGAKELWFFLQSELKKLK [FUT8], the protein stability index by setting is: (treatment: DMSO) 2.85 ± 0.43; (treatment: MLN4924 1 uM, 8 h) 2.52 ± 0.4.
In the same order, the values of LRVRELQRKVDGIQKAYDELRLQS [CCDC89] are 3.16 ± 0.13 and 3.42 ± 0.39.
Turning to LSDSGAFRRSLHDPDGLVATYISE [APMAP], the protein stability index is, setting by setting: (treatment: DMSO) 4.12 ± 0.2; (treatment: MLN4924 1 uM, 8 h) 4.02 ± 0.23.
For LSGVSCFVMFLCLADYLVPILAPR [ARL6IP1], the protein stability index is, setting by setting: (treatment: DMSO) 3.5 ± 0.071; (treatment: MLN4924 1 uM, 8 h) 3.37 ± 0.44.
In the same order, the values of LSGVSQLLPKSRENYLNRCMDQER [FCHO1] are 3.78 ± 0.21 and 3.95 ± 0.14.
In the same order, the values of LSLFVQKLGNLMSLDISGHMILEN [ZER1] are 3.24 ± 0.06 and 3.42 ± 0.48.
In the same order, the values of LTEDMYAQDSIELLTTSGIQFKKH [CNOT7] are 3.93 ± 0.23 and 4.09 ± 0.32.
Regarding LTGTESPFDLEQQWQDLMSIMEMQ [NFE2L1], the protein stability index by setting is: (treatment: DMSO) 3.95 ± 0.23; (treatment: MLN4924 1 uM, 8 h) 3.88 ± 0.47.
In the case of LTPHIVQYQANKVTHTLTMRQRIS [PPEF2], the protein stability index by setting is: (treatment: DMSO) 2.89 ± 0.28; (treatment: MLN4924 1 uM, 8 h) 3 ± 0.17.
In turn, LTQLHRLSLESSPDAPDHTSETSH [PLEKHN1] returned a protein stability index (treatment: DMSO) of 5.23 ± 0.32 and a protein stability index (treatment: MLN4924 1 uM, 8 h) of 5.22 ± 0.21.
In the same order, the values of LTTKDYMEMYNVIMTVKEDQFSAL [SLC6A17] are 2.37 ± 0.39 and 2.38 ± 0.29.
For the sequence LTVAKCWDPSPRGCFTLPRSEPIR [DVL3], the protein stability index reads like this: (treatment: DMSO) 2.43 ± 0.37; (treatment: MLN4924 1 uM, 8 h) 2.62 ± 0.23.
As for LVEAVLSGEVLNGAAVVRPPGHHA [HDAC6], the protein stability index amounted to 2.27 ± 0.2 (treatment: DMSO) and 2.27 ± 0.34 (treatment: MLN4924 1 uM, 8 h).
On to LVGDRDVGKSEILESLQDGAAESP [RAB40A], for which the protein stability index is, setting by setting: (treatment: DMSO) 5.57 ± 0.17; (treatment: MLN4924 1 uM, 8 h) 5.48 ± 0.21.
LVHHRAAHSNEILIFSVQPKSLVR [KLHDC2] gave a protein stability index (treatment: DMSO) of 2.45 ± 0.31 and a protein stability index (treatment: MLN4924 1 uM, 8 h) of 2.21 ± 0.24.
Regarding LVLLRDGRTLIGFLRSIDQFANLV [LSM1], the protein stability index (treatment: DMSO) is 2.23 ± 0.52 and the protein stability index (treatment: MLN4924 1 uM, 8 h) came to 2.47 ± 0.47.
For LVQDLVDSLKFAVLMWLLTYVGAL [RTN1], the protein stability index runs as follows: (treatment: DMSO) 2.94 ± 0.2; (treatment: MLN4924 1 uM, 8 h) 2.85 ± 0.26.
Turning to LVRGHRRRLLRRLSPSRGVAQCLR [ZSWIM9], the protein stability index came out at 3.2 ± 0.23 (treatment: DMSO) and 3.41 ± 0.25 (treatment: MLN4924 1 uM, 8 h).
As for LVTGGELFEDIVAREYYSEADASH [CAMK2A], the protein stability index is 3.92 ± 0.37 (treatment: DMSO) and 3.91 ± 0.17 (treatment: MLN4924 1 uM, 8 h).
Consider LWVEERALLEGEKALWEDKTSLWE [CCDC70], for which the protein stability index is 2.6 ± 0.036 (treatment: DMSO) and 3 ± 0.11 (treatment: MLN4924 1 uM, 8 h).
As for LYCSTPTRTAEPAESSVPPVTSIG [SLC35F2], the protein stability index is, setting by setting: (treatment: DMSO) 3.98 ± 0.25; (treatment: MLN4924 1 uM, 8 h) 4.08 ± 0.2.
In the case of LYRDVMLETFGHLLSIGPELPKPE [ZNF8], the protein stability index came to 2.26 ± 0.27 (treatment: DMSO) and 2.56 ± 0.46 (treatment: MLN4924 1 uM, 8 h).
As to LYSLAPTMGAVVLSSTLLSFSTAI [MFSD9], the protein stability index reads like this: (treatment: DMSO) 3.19 ± 0.47; (treatment: MLN4924 1 uM, 8 h) 2.96 ± 0.42.
As for MAKRIGKDLSNTFAKLEKLTILAK [STX5], the protein stability index amounted to 2.77 ± 0.69 (treatment: DMSO) and 2.77 ± 0.53 (treatment: MLN4924 1 uM, 8 h).
MAMVVSTWRDPQDEVPGSQGSQAS [NR2F2] yielded a protein stability index (treatment: DMSO) of 4.05 ± 0.27 and a protein stability index (treatment: MLN4924 1 uM, 8 h) of 4.32 ± 0.25.
Turning to MDEEKLKQLNCVEISALNGNRINV [DLC1], the protein stability index (treatment: DMSO) was 3.6 ± 0.34 and the protein stability index (treatment: MLN4924 1 uM, 8 h) was 3.67 ± 0.3.
As to MEDGSLDITQSIEDDPLLDAQLLP [TMEM192], the protein stability index worked out at 5.28 ± 0.24 (treatment: DMSO) and 5.18 ± 0.16 (treatment: MLN4924 1 uM, 8 h).
In the same order, the values of MEEAAVASVVLPARELQEALPEAP [BCL2L13] are 5.27 ± 0.15 and 5.51 ± 0.069.
In the same order, the values of MENKAMYLHTVSDCDTSSICEDSF [SCARA5] are 4.46 ± 0.17 and 4.49 ± 0.22.
With MERLRELQRASILDMRRDHEEQLQ [FBF1], the protein stability index amounted to 4.28 ± 0.28 (treatment: DMSO) and 4.42 ± 0.29 (treatment: MLN4924 1 uM, 8 h).
In the same order, the values of MFPVAPKPQDSSQPSDRLMTEKQQ [CEP70] are 5.28 ± 0.2 and 5.24 ± 0.11.
Take MGANTSRKPPVFDENEDVNFDHFE [STK32A]: the protein stability index is, setting by setting: (treatment: DMSO) 5.11 ± 0.26; (treatment: MLN4924 1 uM, 8 h) 5.134 ± 0.042.
MGATRCDFTLSKTNMARIREIMEK [CPXM2]: the protein stability index (treatment: DMSO) is 2.96 ± 0.088 and the protein stability index (treatment: MLN4924 1 uM, 8 h) came out at 3.3 ± 0.31.
In the case of MKQRDNCKIRIQRQLEIMGKEVSG [STX11], the protein stability index by setting is: (treatment: DMSO) 3.27 ± 0.18; (treatment: MLN4924 1 uM, 8 h) 3.39 ± 0.33.
On to MLDFLSERPWIKRMIFKLFSQETV [APMAP], for which the protein stability index is, setting by setting: (treatment: DMSO) 1.98 ± 0.3; (treatment: MLN4924 1 uM, 8 h) 1.82 ± 0.26.
In the same order, the values of MNSLVSWQLLLFLCATHFGEPLEK [KISS1] are 3.18 ± 0.67 and 3.07 ± 0.51.
Turning to MPVICGPEENYPSLQMSSAEMPHT [NANOGP8], the protein stability index runs as follows: (treatment: DMSO) 4.47 ± 0.32; (treatment: MLN4924 1 uM, 8 h) 4.39 ± 0.24.
In the same order, the values of MQKEDNQVDVRFFGHHHQRAWIPS [ZMYND11] are 3.05 ± 0.12 and 3.18 ± 0.32.
For the sequence MRDQYMRAGEGFIICYSITDRRSF [RIT1], the protein stability index runs as follows: (treatment: DMSO) 2.37 ± 0.82; (treatment: MLN4924 1 uM, 8 h) 2.11 ± 0.38.
Take MREYKLVVLGSGGVGKSALTVQFV [RAP1B]: the protein stability index (treatment: DMSO) was 2.51 ± 0.53 and the protein stability index (treatment: MLN4924 1 uM, 8 h) turned out to be 2.8 ± 0.75.
In the same order, the values of MSDTAVADTRRLNSKPQDLTDAYG [SNX12] are 4.96 ± 0.24 and 5.06 ± 0.14.
Turning to MSREPTPPLPGDMSTGPIAESWCY [SPOPL], the protein stability index was 3.29 ± 0.32 (treatment: DMSO) and 3.37 ± 0.47 (treatment: MLN4924 1 uM, 8 h).
Turning to MSSEVSARRDAKKLVRSPSGLRMV [ZFYVE21], the protein stability index runs as follows: (treatment: DMSO) 3.67 ± 0.091; (treatment: MLN4924 1 uM, 8 h) 3.58 ± 0.28.
In the same order, the values of MSVSEIFVELQGFLAAEQDIREEI [TSN] are 2.39 ± 0.42 and 2.72 ± 0.26.
Take MTTESGSDSESKPDQEAEPQEAAG [EPB41L3]: the protein stability index reads like this: (treatment: DMSO) 5.62 ± 0.33; (treatment: MLN4924 1 uM, 8 h) 5.56 ± 0.45.
Take MVESRYALLIVDSATALYRTDYSG [RAD51]: the protein stability index turned out to be 3 ± 0.79 (treatment: DMSO) and 2.86 ± 0.71 (treatment: MLN4924 1 uM, 8 h).
For the sequence MVPGTRHSAVLRDLRSGTLYSLTL [TNXB], the protein stability index worked out at 2.91 ± 0.58 (treatment: DMSO) and 2.03 ± 0.52 (treatment: MLN4924 1 uM, 8 h).
On to MVPVENTEGPSLLNQKGTAVETEG [SLC2A12], for which the protein stability index is, setting by setting: (treatment: DMSO) 5.62 ± 0.19; (treatment: MLN4924 1 uM, 8 h) 5.11 ± 0.3.
In the same order, the values of NAREESLVEELSPASEKKPVPPSE [BCL2L13] are 5.33 ± 0.27 and 5.47 ± 0.14.
